Key:
[1] = target: SARS-CoV-2 Spike receptor binding domain (RBD), wildtype (SARS-CoV-2, UniProt P0DTC2 319-541)
[2] = target: SARS-CoV-2 Spike protein on live SARS-CoV-2 (SARS-CoV-2, UniProt P0DTC2 14-1273); experiment: cell-based or functional assay

Binder | Kd [1] [nM] | live SARS-CoV-2 neutralization IC50 [2] [µg/mL]
N-612-017 (antibody, V domains shown) VH: EVQLVESGGGLVQPGGSLRLSCAASGFTFSSYAMHWVRQAPGKGLEWVSAIWGSGSNTYYADSVKGRFTISRDNSKNTLYLQMNSLRAEDTAVYYCARGRDLAAFTKTAFDVWGQGTLVTVSS VL: not shown | 5.29 | 0.0756
N-612-017-5B05 SV (antibody, V domains shown) VH: EVQLVESGGGLVQPGGSLRLSCAASGFTFSSYVMHWVRQAPGKGLEWVSAIWGSGSNTYYADSVKGRFTISVDNSKNTLYLQMNSLRAEDTAVYYCARGEELAAFTKTAFDVWGQGTLVTVSS VL: not shown | 6.62 | –
N-612-007 (antibody, V domains shown) VH: EVQLVESGGGLVQPGGSLRLSCAASGFTFSNYAMHWVRQAPGKGLEWVSAISGNGGSTGYADSVKGRFTISRDNSKNTLYLQMNSLRAEDTAVYYCARDRWYVKNAFDVWGQGTLVTVSS VL: not shown | – | 0.0452
N-612-014 (antibody, V domains shown) VH: EVQLVESGGGLVQPGGSLRLSCAASGFTFSSYAMTWVRQAPGKGLEWVSYISGSGGGTYYADSVKGRFTISRDNSKNTLYLQMNSLRAEDTAVYYCARDRWASGWLAFDVWGQGTLVTVSS VL: not shown | – | 0.00791
N-612-004 (antibody, V domains shown) VH: EVQLVESGGGLVQPGGSLRLSCAASGFTFSSYYMHWVRQAPGKGLEWVSAISGSGGYTYYADSVKGRFTISRDNSKNTLYLQMNSLRAEDTAVYYCARDRDHAYDWGFDVWGQGTLVTVSS VL: DIQMTQSPSSLSASVGDRVTITCQASQDISNYLNWYQQKPGKAPKLLIYDASNLETGVPSRFSGSGSGTDFTFTISSLQPEDIATYYCQQWADWPLTFGQGTKVEIK | – | 0.194
N-612-056 (antibody, V domains shown) VH: not shown VL: DIQMTQSPSSLSASVGDRVTITCQASQDISNYLNWYQQKPGKAPKLLIYDASNLETGVPSRFSGSGSGTDFTFTISSLQPEDIATYYCQQDAGTPLTFGQGTKVEIK | 2.98 | 0.855
N-612-056-21 (antibody, V domains shown) VH: not shown VL: DIQMTQSPSSLSASVGDRVTITCQASQDISNYLNWYQQKPGKAPKLLIYDASNLETGVPSRFSGSGSGTDFTFTISSLQPEDIATYYCQQDAGTPLTFGQGTKVEIK | 0.41 | –

Reference: patent EP4335870A1 (NantCell, Inc., dated 2024)
